The values that follow come from article doi:10.1101/2021.10.06.463400.

The test addresses actin (skeletal muscle thin filament) (mouse (endogenous in psoas myofibrils)) (UniProt P68134). Briefly: cryo-EM structure.

With “nebulin (from UniProt E9Q1W3 1-7152) (natural protein)”, the stoichiometry, nebulin simple repeat to actin subunit amounted to 1.
